Reference: patent publication US20220220164A1

Molecular target: maize RIP β-chain (second component of the gePSI), C-terminally fused to a murine ornithine decarboxylase (ODC36) degron (maize (Zea mays); murine) (UniProt P00860)
Test: cell-based or functional assay
Settings: scale: normalized nascent protein signal

UniProt P00860, sequence (P00860 426-461, tags or fused parts left off): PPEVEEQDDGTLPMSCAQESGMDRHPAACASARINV

Q: With “maize RIP α-chain (first component of the gePSI) (from UniProt P25891 22-161) (enzyme)” as the substance, how does the nascent protein signal of gePSI-transfected neurons after 4 h dox, normalized to the mean of neighboring untransfected neurons (FIG. 1g) read?
A: Its nascent protein signal of gePSI-transfected neurons after 4 h dox, normalized to the mean of neighboring untransfected neurons (FIG. 1g) is 0.21.
